Read-outs that look alike come from different tables or passages of the source. Marks after values point to notes of the source that are not given here. Blank lines part the entries; values can stand above or below the molecule they belong to.
Key:
[1] = target: T1, β4Gal-T1 (Bos taurus, UniProt P08037); conditions: read-out: Km value of the acceptor; cited from earlier work
T1 sequence (P08037 1-402): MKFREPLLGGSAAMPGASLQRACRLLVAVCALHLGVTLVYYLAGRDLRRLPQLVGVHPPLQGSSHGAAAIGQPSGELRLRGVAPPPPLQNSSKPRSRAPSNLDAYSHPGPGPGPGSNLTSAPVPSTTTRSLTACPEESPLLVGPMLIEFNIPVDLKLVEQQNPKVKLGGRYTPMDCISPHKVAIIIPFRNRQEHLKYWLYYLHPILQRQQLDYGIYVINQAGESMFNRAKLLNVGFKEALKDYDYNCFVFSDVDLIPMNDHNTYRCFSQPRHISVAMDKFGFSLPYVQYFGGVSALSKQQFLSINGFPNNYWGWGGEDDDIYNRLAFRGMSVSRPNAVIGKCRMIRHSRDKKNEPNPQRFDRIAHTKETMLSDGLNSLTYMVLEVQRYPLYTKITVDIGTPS

[2] = target: T2, M344H-Gal-T1 (Bos taurus, UniProt P08037, C342T/M344H); assay: Acceptor substrate inhibition of M344H-Gal-T1 catalytic activity; assay type: biochemical, bovine; conditions: in the presence of Mn^2+ (5 mM in FIG. 7c)
T2 construct: codes for residues 130 to 402 of bovine Gal-T1; made in house; host or cells: E. coli BL21(DE3) pLysS (pET23a derivative pEGT-d129)
T2 sequence (P08037 130-402 C342T/M344H): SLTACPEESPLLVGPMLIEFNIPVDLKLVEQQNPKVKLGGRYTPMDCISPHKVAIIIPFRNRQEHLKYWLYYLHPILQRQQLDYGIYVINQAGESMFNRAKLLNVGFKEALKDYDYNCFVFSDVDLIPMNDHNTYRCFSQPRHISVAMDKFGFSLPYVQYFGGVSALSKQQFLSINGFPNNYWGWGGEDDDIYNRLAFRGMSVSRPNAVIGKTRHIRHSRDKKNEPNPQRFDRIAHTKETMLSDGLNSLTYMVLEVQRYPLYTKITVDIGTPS
Method: (§1) FIG. 7 depicts the effect of GlcNAc concentration on Gal-T activity of the M344H-Gal-T1 mutant (a) and wild-type enzyme, C342T-Gal-T1 (b), at different fixed concentrations of Mn^2+: (a) (●) 6 μM, (O) 20 μM, (▾) 0.5 mM, (open triangle) 1.5 mM, and (▪) 5 mM and (b) (●) 6 μM, (open triangle) 80 μM, (▪) 0.5 mM, (▴) 1.5 mM, and (A) 5 mM. The activity of the mutant (a) is inhibited above 2-5 mM GlcNAc at any concentrations of Mn^2+, whereas the activity of the wild type (b) is inhibited at 25-30 mM GlcNAc and above 0.5 mM Mn^2+. (c) Effect of either GlcNAc, chitobiose, or β-benzyl-GlcNAc concentration on Gal-T activity of the mutant M344H-Gal-T1 in the presence of 5 mM Mn^2+. Arrows indicate the inhibition concentration for the respective curves. It is known that the disaccharide chitobiose binds strongly to the Gal-T1 compared to the monosaccharide GlcNAc. The higher the affinity of the acceptor substrate, the lower the required inhibition concentrations.
(§2) The inhibition of the M344H-Gal-T1 mutant with higher concentrations of the acceptor is independent of the concentration of Mn^2+ used in the assay (FIGS. 7A-C), while in the wild type, low concentrations of metal have no effect on acceptor inhibition (FIGS. 7A-C). […]

[3] = β4Gal-T enzyme assay, specific activity in the presence of various metal ions; assay type: biochemical, bovine
Method: Protein concentrations were measured using the Bio-Rad Protein Assay kit, based on the method of Bradford and further verified on SDS-PAGE gels using standard protein concentration markers. An in vitro assay procedure for Gal-T1 has been reported previously (Ramakrishnan et al., J. Mol. Biol., 310:205 (2001)). The activities were measured using UDP-Gal as sugar nucleotide donor, and GlcNAc as the acceptor sugar. For the specific activity measurements, a 100 μL incubation mixture containing 25 mM GlcNAc, 5 mM MnCl2 or MgCl2, 20 mM Tris-HCl pH 8.0, 500 μM UDP-Gal, 500 ng M344H-Gal-T1 or 30 ng of C342T-Gal-T1 and 0.5 μCi ^3H-UDP-Gal was used for each Gal-T reaction. The incubation was carried out at 30° C. for 15 minutes. The reaction was terminated by adding of 200 μl cold water, and the mixture was passed through a 0.5 mL bed volume column of AG 1-X8 […] resin (Bio-Rad) to remove any unreacted ^3H-UDP-Gal. The column was washed successively with 300, 400 and 500 μl of cold water, and the column flow-through was diluted with Biosafe scintillation fluid; radioactivity was measured with a Beckman counter. A reaction without the acceptor sugar was used as a control. Only 0.1 mM concentration of ZnCl2 or CoCl2 was used whenever Zn^2+ or Co^2+ was used during the enzyme assay.

[4] = Effect of the acceptor concentration on Gal-T activity of the enzyme; assay type: biochemical, bovine; conditions: in the presence of Mn^2+
Method: as §1, §2

[5] = Two-substrate kinetic analysis of galactose transfer; assay type: biochemical, bovine; conditions: with Mn^2+
Text: The true Km of the donor (KA) and of the acceptor (KB), the dissociation constant of the donor, Kia, and kcat, were obtained using two-substrate analyses and the primary plots of at least five concentrations of donor (UDP-Gal) and five concentrations of acceptor, and the corresponding secondary plots of the intercepts and slopes. Initial rate conditions were linear with respect to time. A suitable range of donor and acceptor concentrations was chosen, which allowed accurate Michaelis-Menten constants to be derived. The data were also analyzed for a general two-substrate system using the following equations (Herbert, Initial Rate Enzymatic Kinetics, Springer-Verlag, New York (1975)) with the software EnzFitter, a Biosoft non-linear curve fitting program for Windows:
[formula] Here ν is the initial velocity and the rate equation for a sequential symmetrical, initial velocity pattern associated with equation 1, an ordered or random equilibrium mechanism in which substrate A dissociates well from the ECS complex with a dissociation constant of Kia. Equation 2 is for an asymmetric initial velocity pattern for a double-displacement or “ping-pong” mechanism. The kinetic parameters KA, KB, Kia, and Vmax were obtained from the fitted curves using the above rate equations. The graphical method and EnzFitter program gave very similar kinetic parameters.
This is quite similar to that of the wild-type enzyme (FIG. 2B) (Takase and Ebner, Curr. Top. Cell Regul., 24:51 (1984); Boeggeman and Qasba, Glycobiology, 12:395 (2002)). […] Although the catalytic efficiency with respect to donor and acceptor, compared to the wild-type enzyme with Mn^2+, has decreased by an order of about 13 and 6, respectively, the turnover number of the mutant, kcat, is reduced by only 60%. The lesser effect on kcat could be the result of Mg^2+ participating more efficiently in the formation of the transition state complex during the transfer reaction by the mutant or minor differences in the coordination geometry of the Mg^2+ in the mutant compared to that of Mn^2+ ion in the wild-type enzyme. The crystal structure of the M344H-Gal-T1 in complex with UDP-Gal in the presence of either Mn^2+ or Mg^2+ was then determined and compared to the structure with the wild-type UDP-Gal.metal complex. Crystal structure analysis of the M344E-Gal-T1 mutant in the presence of UDP-Gal and Mn^2+ was conducted to further understand the effect of the M344E mutation on the metal-ion binding site.

[6] = Metal ion activation curve, metal binding constants for Mn^2+; assay type: biochemical, bovine; conditions: with Mn^2+
Text: The activation curve of M344E-Gal-T1, using Mn^2+, is strikingly different from that of the wild-type enzyme (FIGS. 1A and 1B). In contrast to the wild type enzyme, the velocity curve obtained with the Mn^2+ concentration for the M344E-Gal-T1 mutant is not sigmoidal. On the other hand, the same curve for the M344H-Gal-T1 mutant in the presence of the Mg^2+ is sigmoidal (FIG. 1C). The observation that activation of the wild type enzyme by metal ions is sigmoidal has been interpreted as involving two metal binding sites in the enzyme: one with high affinity (Kd1), which is associated with low velocity, and a second site with low affinity (Kd2), which is associated with high velocity (Powell and Brew, J. Biol. Chem., 251:3645 (1976); Boeggeman and Qasba, Glycobiology, 12:395 (2002)). […] The values of the dissociation constant (Kd) for Mn^2+ of the mutant are quite different from that of the wild type (Table IV).
The enzyme activation data at various concentrations of Mg^2+ were fitted to an equation describing metal binding to a high affinity site (K1) to generate an enzyme form with a low kcat (V1) and to a second, lower affinity site (K2) to generate a form with a higher kcat (V2) (Boeggeman and Qasba, Glycobiology, 12:395 (2002)): […]

[7] = 5 mM metal ion, 500 μM UDP-Gal, 25 mM GlcNAc

Molecule: CC(=O)N[C@H]1C(O)O[C@H](CO)[C@@H](O)[C@@H]1O (stereo partly drawn) [GlcNAc, N-acetylglucosamine]
Km [1]: 5 mM

Molecule: CC(=O)N[C@H]1[C@H](O[C@H]2[C@H](O)[C@@H](NC(C)=O)C(O)O[C@@H]2CO)O[C@H](CO)[C@@H](O)[C@@H]1O (stereo partly drawn) [chitobiose, βGlcNAc1-4GlcNAc]
Km [1]: 1 mM
inhibition of the catalytic activity of the M344H-Gal-T1 mutant by the acceptor [2]: at very low concentrations much more strongly than GlcNAc does

Molecule: CC(=O)N[C@H]1[C@H](OCc2ccccc2)O[C@H](CO)[C@@H](O)[C@@H]1O [β-benzyl-GlcNAc]
inhibition of the catalytic activity of the M344H-Gal-T1 mutant by the acceptor [2]: at very low concentrations much more strongly than GlcNAc does

activation of the enzyme by Mg^2+ ([3]; Mg^2+): does not activate
GlcNAc concentrations at which catalytic activity is inhibited [4]: 20 to 25 mM
GlcNAc concentrations at which catalytic activity is inhibited ([4]; listed as C342T-Gal-T1): 25 to 30 mM
Kd ([6]; read-out: metal ion Kd1): 30 µM
Kd ([6]; read-out: metal ion Kd2): 400 µM
B1: wild-type β4Gal-T1: residues 130 to 402 of bovine Gal-T1 with Cysteine to Threonine exchange at 342 (C342T), used as wild-type enzyme (protein, UniProt P08037 130-402, looked up, variant C342T)
chain: SLTACPEESPLLVGPMLIEFNIPVDLKLVEQQNPKVKLGGRYTPMDCISPHKVAIIIPFRNRQEHLKYWLYYLHPILQRQQLDYGIYVINQAGESMFNRAKLLNVGFKEALKDYDYNCFVFSDVDLIPMNDHNTYRCFSQPRHISVAMDKFGFSLPYVQYFGGVSALSKQQFLSINGFPNNYWGWGGEDDDIYNRLAFRGMSVSRPNAVIGKTRMIRHSRDKKNEPNPQRFDRIAHTKETMLSDGLNSLTYMVLEVQRYPLYTKITVDIGTPS
modifications: catalytic domain
notes: residues 130 to 402 of bovine Gal-T1 with Cysteine to Threonine exchange at 342 (C342T), used as wild-type enzyme
Catalytic Activity in the Presence of Various Metal Ions: Co ([3]; 0.1 mM Co^2+, 500 μM UDP-Gal, 25 mM GlcNAc): 0.41^b picomoles per minute per nanogram
Catalytic Activity in the Presence of Various Metal Ions: Zn ([3]; 0.1 mM Zn^2+, 500 μM UDP-Gal, 25 mM GlcNAc): 1.42 picomoles per minute per nanogram
Catalytic Activity in the Presence of Various Metal Ions: Ca [3, 7]: 0 picomoles per minute per nanogram
Catalytic Activity in the Presence of Various Metal Ions: Mg [3, 7]: 0 picomoles per minute per nanogram
Catalytic Activity in the Presence of Various Metal Ions: Mn [3, 7]: 5.35 picomoles per minute per nanogram
Catalytic Activity in the Presence of Various Metal Ions: Sr [3, 7]: 0 picomoles per minute per nanogram
GlcNAc KB (true Km of the acceptor) [5]: 10 mM
Kcat [5]: 3.6 s⁻¹
Kcat/KA [5]: 40000 M⁻¹ s⁻¹
Kia (dissociation constant of the donor) [5]: 0
UDP-Gal KA (true Km of the donor) [5]: 95(6) μM
UDP-Gal Vmax [5]: 6.4(4) pmol min^−1 ng^−1

— patent US8703459B2, “Catalytic domains of beta(1,4)-galactosyltransferase I having altered metal ion specificity” (The United States of America, as represented by the …, priority 2003, dated 2014)
